Laboratory results from patent EP1724589A2.
pKd: −log10 of the molar value.

Legend:
S-100b [1] = assay: ELISA: S-100b coated at 500 ng/well, sRAGE at 1.0 x 10^-4 mg/ml, detected with anti-sRAGE antibody complex
S-100b [2] = assay: ELISA: 88 wells coated with S-100b at 500 ng/well, sRAGE at 2.2 x 10^-4 mg/ml, polyclonal anti-sRAGE detection (Figure 7)
S-100b [3] = assay: ELISA saturation curve with Scatchard analysis (Figure 8): S-100b coated at 50 ng/well, sRAGE about 0.3 to 10 nM, high affinity component
S-100b [4] = assay: ELISA saturation curve with Scatchard analysis (Figure 9): S-100b coated at 100 ng/well, sRAGE about 0.3 to 10 nM, high affinity component
S-100b [5] = assay: ELISA saturation curves with Scatchard analysis (Figures 10 and 11): S-100b coated at 500 and 100 ng/well, sRAGE about 23 to 470 nM or 5 to 76 nM, low affinity site

OD (maximal signal) (S-100b [1]): 1.06 OD
average OD405 (S-100b [2]): 0.705 OD405
pKd (S-100b [3]): 8.22
pKd (S-100b [4]): 8.70
pKd (S-100b [5]): 7.22
Substance: soluble RAGE (sRAGE), the soluble, extracellular portion of human Receptor for Advanced Glycated Endproducts (from UniProt Q15109 23-339)
